Reference: patent publication US20230038638A1, “COMPLEMENT FACTOR I-RELATED COMPOSITIONS AND METHODS” (published 2023)

Columns and labels:
[1] = molecular target: T1, human C4b (human) (UniProt P0C0L4)
T1 sequence: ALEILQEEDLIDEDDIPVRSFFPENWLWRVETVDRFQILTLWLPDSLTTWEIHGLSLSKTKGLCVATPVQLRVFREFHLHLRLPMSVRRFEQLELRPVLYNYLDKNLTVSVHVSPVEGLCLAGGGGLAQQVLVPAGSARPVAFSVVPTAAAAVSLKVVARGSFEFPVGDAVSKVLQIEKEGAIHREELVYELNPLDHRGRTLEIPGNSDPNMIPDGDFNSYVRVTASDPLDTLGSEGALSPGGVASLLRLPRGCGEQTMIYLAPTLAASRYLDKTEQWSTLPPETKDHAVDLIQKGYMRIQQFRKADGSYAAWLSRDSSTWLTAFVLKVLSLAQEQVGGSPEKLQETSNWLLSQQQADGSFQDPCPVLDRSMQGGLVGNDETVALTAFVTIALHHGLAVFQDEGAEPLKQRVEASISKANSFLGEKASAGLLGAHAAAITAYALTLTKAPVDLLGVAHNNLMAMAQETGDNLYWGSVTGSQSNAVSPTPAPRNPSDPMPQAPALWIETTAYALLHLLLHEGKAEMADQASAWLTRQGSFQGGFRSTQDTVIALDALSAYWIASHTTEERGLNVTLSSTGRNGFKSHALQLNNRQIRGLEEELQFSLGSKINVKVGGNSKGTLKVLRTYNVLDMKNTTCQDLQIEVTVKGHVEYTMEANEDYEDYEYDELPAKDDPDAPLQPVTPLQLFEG

[2] = molecular target: soluble human C3b (human) (UniProt P01024)

C4b Screen Ref Fold (fold of CFI-HSA wild type) [1]	iC3b Screen Ref Fold (fold of CFI-HSA wild type) [2]	C4b Screen Ref Fold (fold of reference) [1]	iC3b Screen Ref Fold (fold of reference) [2]	Substance
2.93	1.15			CFI-HSA variant T377G; Y408M; N422K; E457G; E461Q; E530F; N531G (enzyme)
5.88	1.45			CFI-HSA Y408L; E457G; E461Q; F464Y (enzyme)
-0.09	-0.04			CFI-HSA variant F537K; S507A (enzyme)
0.29	0.72			CFI-HSA D425P (enzyme)
0.83	0.11			CFI-HSA R462K; F464Y (enzyme)
		2.62	0.95	CFI-HSA variant E461F (enzyme)
0.15	0.02			CFI-HSA variant D425K; Y408M; E530F; F537K; K504R (enzyme)
6.27	0.78			CFI-HSA N531G; R462K; F464Y (enzyme)
6.36	1.18			CFI-HSA Y408L; E457G; E461Q (enzyme)
2.18	0.91			CFI-HSA D425M (enzyme)
0.05	0.01			CFI-HSA D506M (enzyme)
0.03	0.01			CFI-HSA variant I391G (enzyme)
0.41	-0.03			CFI-HSA D506L (enzyme)
-0.02	-0.04			CFI-HSA variant Y408M; S507A (enzyme)
0.22	0.42			CFI-HSA P535H (enzyme)
6.74	1.54			CFI-HSA E457G; E461Q; R462K (enzyme)
		2.57	0.01	CFI-HSA fusion WT; GGSSGG (SEQ ID NO: 6); CR1(ccp15); CR1(ccp16); CR1(ccp17); fH(ccp4) (from UniProt P17927) (enzyme)

C4b Screen Ref Fold (fold of CFI-HSA wild type) [1]	iC3b Screen Ref Fold (fold of CFI-HSA wild type) [2]	C4b Screen Ref Fold (fold of reference) [1]	iC3b Screen Ref Fold (fold of reference) [2]	Substance
		0.63	1.24	CFI-HSA variant P558S; F559L; I560V; Y563H (enzyme)
1.46	0.94			CFI-HSA D425L (enzyme)
0.31	0.48			CFI-HSA Y408L; R462K (enzyme)
3.74	0.87			CFI-HSA variant T377G; N422K; D425K; E457G; E461Q; E530F; N531G (enzyme)
3.53	2.46			CFI-HSA variant D425K; E457G; E461Q; K504R; N531G (enzyme)
4.44	1.03			CFI-HSA Y408L; E461Q (enzyme)
1.79	1.75			CFI-HSA D425H (enzyme)
		0.19	0.96	CFI-HSA variant E530K (enzyme)
		0.25	-0.01	CFI-HSA fusion WT; GGSSGG (SEQ ID NO: 6); CR1(ccp15); CR1(ccp16); fH(ccp3); fH(ccp4) (from UniProt P17927) (enzyme)
4.89	1.12			CFI-HSA Y408L; E530K; N531G (enzyme)
0.38	1.18			CFI-HSA variant F537K; P558S (enzyme)
0.07	-0.02			CFI-HSA variant Y408F; S507A (enzyme)
1.14	1.31			CFI-HSA K534A (enzyme)
0.42	1.45			CFI-HSA F208Y; F246Y; F480Y; F537Y (enzyme)
		-0.02	0.01	CFI-HSA variant I317D-R318D-R319D-K320D-R321K; Y408L; N531G; E457G; E461Q; R462K; F464Y (enzyme)
3.94	1.78			CFI-HSA K14A; D425R; Y408L-N531G (enzyme)
0.03	-0.03			CFI-HSA variant N422K; S507A (enzyme)

The remaining lines, values behind:

Substance	C4b Screen Ref Fold (fold of CFI-HSA wild type) [1]	iC3b Screen Ref Fold (fold of CFI-HSA wild type) [2]	C4b Screen Ref Fold (fold of reference) [1]	iC3b Screen Ref Fold (fold of reference) [2]
CFI-HSA variant G344K; Y408L; N531G (enzyme)			1.2	0.93
CFI-HSA variant E457G; E461Q; N531G; S507A (enzyme)	-0.05	-0.04		
CFI-HSA variant P558S (enzyme)			0.77	1.56
CFI-HSA variant G344Y (enzyme)			1.93	0.43
CFI-HSA H362T; V463S; R456F; D459W; S343R (enzyme)	0.3	-0.01		
CFI-HSA D425S (enzyme)	1.13	2.21		
CFI-HSA F464L (enzyme)	0.15	0		
CFI-HSA E461Q; R462K (enzyme)	4.69	1.23		
CFI-HSA H362T; R456I; D459W; S343R (enzyme)	0.13	-0.04		
CFI-HSA D425N (enzyme)	1.54	1.66		
CFI-HSA variant Q409G (enzyme)			0.36	0.33
CFI-HSA variant E416A; E457G; E461Q; R462K; F464Y; N531G (enzyme)	3.68	3.21		
CFI-HSA variant K387G (enzyme)	0.37	0.23		
CFI-HSA D425T (enzyme)	2.05	2.16		
CFI-HSA K534G (enzyme)	0.17	0.13		
CFI-HSA variant R462G (enzyme)	0.25	0		
CFI-HSA N531G; E457G; R462K (enzyme)	7.02	1.92		
CFI-HSA variant Y408M; E530F (enzyme)	0.11	0.95		
CFI-HSA N531G; F464Y (enzyme)	6.48	1.47		
CFI-HSA H362T; V463S; R456I; S343R (enzyme)	0.13	-0.02		
CFI-HSA N531G; P535A; S507A; GGSSGG (SEQ ID NO: 6); CCP_1-4 (enzyme)	0.2	-0.02		
CFI-HSA Y408L; N531G; R462K (enzyme)	3.76	1.13		
CFI-HSA variant K14A; Y20F; D26A; R35A; E38A (enzyme)			0.15	0.11
CFI-HSA D506Q (enzyme)	0.47	-0.02		
CFI-HSA P535L (enzyme)	0.27	0.53		
CFI-HSA N531G; E461Q (enzyme)	6.13	1.45		
CFI-HSA Y408L; S507A; N531G; GGSSGG (SEQ ID NO: 6); CCP_1-4 (enzyme)	0.1	0.01		
CFI-HSA variant N476Q; N518Q (enzyme)	0.15	1.28		
CFI-HSA F464A (enzyme)	-0.01	0.02		
CFI-HSA variant K418G (enzyme)			0.69	0.39
